According to paper doi:10.1101/558098:
Read-outs that look alike come from different tables or passages of the source.

Columns and labels:
Assay in all cases: EMSA
[1] = target: IMP1_KH1-4mut (human, UniProt Q9NZI8 1-577, K213E;E214L;K294E;E295L;K423E;K424L;K505E;G506L)
[2] = target: T1, YBX1 (human, UniProt P67809 1-324)
[3] = target: T2, IMP1 (human, UniProt Q9NZI8 1-577)
[4] = target: T1, YBX1; remark: listed apart in the source
[5] = target: T2, IMP1; remark: listed apart in the source
[6] = target: T1, YBX1; remark: listed apart in the source
[7] = target: T2, IMP1; remark: listed apart in the source
[8] = target: T2, IMP1; remark: listed apart in the source
[9] = target: T1, YBX1; remark: listed apart in the source

T1 sequence (P67809 whole entry): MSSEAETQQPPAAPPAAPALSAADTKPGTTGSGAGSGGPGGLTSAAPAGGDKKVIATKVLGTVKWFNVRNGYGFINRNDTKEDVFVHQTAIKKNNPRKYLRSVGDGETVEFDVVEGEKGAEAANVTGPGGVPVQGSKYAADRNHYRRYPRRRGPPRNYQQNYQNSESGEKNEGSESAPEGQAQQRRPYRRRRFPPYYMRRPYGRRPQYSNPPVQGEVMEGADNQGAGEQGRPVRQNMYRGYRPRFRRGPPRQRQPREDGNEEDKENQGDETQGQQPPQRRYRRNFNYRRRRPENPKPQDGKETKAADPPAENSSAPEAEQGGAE
T2 sequence (Q9NZI8 whole entry): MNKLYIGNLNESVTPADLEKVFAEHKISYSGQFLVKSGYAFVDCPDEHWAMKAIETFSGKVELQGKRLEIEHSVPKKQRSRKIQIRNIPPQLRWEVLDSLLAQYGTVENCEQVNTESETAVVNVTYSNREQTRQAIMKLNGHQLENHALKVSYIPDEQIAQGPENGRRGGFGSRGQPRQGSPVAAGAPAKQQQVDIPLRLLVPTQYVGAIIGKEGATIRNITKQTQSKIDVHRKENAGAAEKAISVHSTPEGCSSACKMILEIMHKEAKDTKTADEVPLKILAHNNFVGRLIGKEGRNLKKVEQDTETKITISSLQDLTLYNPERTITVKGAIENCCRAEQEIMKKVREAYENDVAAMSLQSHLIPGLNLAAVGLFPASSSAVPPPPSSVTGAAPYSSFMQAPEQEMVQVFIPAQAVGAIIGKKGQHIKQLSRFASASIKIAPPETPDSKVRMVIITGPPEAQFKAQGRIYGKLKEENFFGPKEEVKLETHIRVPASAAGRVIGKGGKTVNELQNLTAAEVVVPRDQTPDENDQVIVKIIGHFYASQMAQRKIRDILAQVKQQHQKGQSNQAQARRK
Chain of IMP1_KH1-4mut (Q9NZI8 whole entry K213E/E214L/K294E/E295L/K423E/K424L/K505E/G506L): as the sequence (Q9NZI8 whole entry) above, with K213E, E214L, K294E, E295L, K423E, K424L, K505E, G506L counted along it

B1: C-MYC CRD (ssRNA)
RNA: GGACCAGAUCCCGGAGUUGGAAAACAAUGAAAAGGCCCCCAAGGUAGUUAUCCUUAAAAAAGCCACAGCAUACAUCCUGUCCGUCCAAGCAGAGGAGCAAAAGCUCAUUUCUGAAGAGGACUUGUUGCGGAAACGACGAGAACAGUUGAAACACAAACUUGAACAGCUACGGAACUCUUGUGCG
**Q.** With B1 as the binder, how does the binding signal [1] read?
**A.** ~10 fold reduction vs wild-type IMP1

**Q.** Does B1 bind [2]?
**A.** binds

**Q.** Does B1 bind [3]?
**A.** binds

B2: C-MYC 3'UTR (ssRNA)
RNA: GGAAAAGUAAGGAAAACGAUUCCUUCUAACAGAAAUGUCCUGAGCAAUCACCUAUGAACUUGUUUCAAAUGCAUGAUCAAAUGCAACCUCACAACCUUGGCUGAGUCUUGAGACUGAAAGAUUUAGCCAUAAUGUAAACUGCCUCAAAUUGGACUUUGGGCAUAAAAGAACUUUUUUAUGCUUACCAUCUUUUUUUUUUCUUUAACAGAUUUGUAUUUAAGAAUUG
**Q.** Which results are given for B2?
**A.** binding result [4]: binds; binding result [5]: binds

B3: ACTB exon 5 (ssRNA)
RNA: not shown
**Q.** Does B3 bind [6]?
**A.** binds

**Q.** Does B3 bind [7]?
**A.** no binding

B4: ACTB 3'UTR (ssRNA)
RNA: GGCGGACUAUGACUUAGUUGCGUUACACCCUUUCUUGACAAAACCUAACUUGCGCAGAAAACAAGAUGAGAUUGGCAUGGCUUUAUUUGUUUUUUUUGUUUUGUUUUGGUUUUUUUUUUUUUUUUGGCUUGACUCAGGAUUUAAAAACUGGAACGGUGAAGGUGACAGCAGUCGGUUGGAGCGAGCAUCCCCCAAAGUUCACAAUGUGGCCGAGGACUUUGAUUGCACAUUGUU
**Q.** Which results are given for B4?
**A.** binding result [8]: binds; binding result [9]: binds
